Among the data in the supplement of paper PMC10126150 are switch fluorescence ratio values, retold here.

± gives the standard deviation of the averaged measurements.

This data set has as its system ATP. Nature of the data set: switch fluorescence ratio, 500 uM ATP over buffer (Cy3 cluster intensity, sum of 5 cycles each) (fold (ratio)); higher = stronger signal-on switching upon ATP binding; sequences stand for … in TCGTCGGCAGCGTCAGATGTGTATAAGAGACAGTTTTTTTTTTTTTTTTTTTTTTTTT…TC. The note with it: aptamer strand: ATP DNA aptamer (quencher-CACCTGGGGGAGTATTGCGGAGGAAGG + anchor), 100 nM annealed; ATP concentration: 500 uM. In outline:
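Values give the fluorescence ratio for each switch-domain sequence, averaged from per-cluster ratios of summed target-cycle to summed buffer-cycle Cy3 intensity. The Cy3-labelled switching-strand clusters sat on a modified Illumina MiSeq flow-cell, were annealed to 100 nM quencher-labelled ATP aptamer, and were imaged in selection buffer, then after 15 min with 500 uM ATP at 22 °C. Five cycles ran with NaOH stripping and re-annealing between them, and clusters outside 100-1000 RFU were excluded.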
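Also: ATP exposure 15 min at 22 °C before imaging.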

AAAAAAAGCT: the switch fluorescence ratio turned out to be 1.06 ± 0.075. For the sequence AAAAAAAGGG, the switch fluorescence ratio was 1.01 ± 0.047. In the case of AAAAAAATGC it was 0.974 ± 0.037; in that of AAAAAACGCC, 1.02 ± 0.027.

Take AAAAAAGGGT: the switch fluorescence ratio was determined as 1.02 ± 0.021. For the sequence AAAAAAGGTT, the switch fluorescence ratio was 1.07 ± 0.14. Take AAAAAATATT: the switch fluorescence ratio came to 1.029 ± 0.0043. For the sequence AAAAAATGCC, the switch fluorescence ratio stood at 1.07 ± 0.091.

Turning to AAAAACAGCG, the switch fluorescence ratio was determined as 1.02 ± 0.053. In the case of AAAAACTCTG it was 1.01 ± 0.079; in that of AAAAATAGGG, 1.03 ± 0.04; in that of AAAAATGTTA, 1.01 ± 0.018. In the case of AAAAATTCAG, the switch fluorescence ratio turned out to be 0.987 ± 0.045. As to AAAACATGGA, the switch fluorescence ratio is 0.9537 ± 0.0037.

For AAAACGTTAC, the switch fluorescence ratio was found to be 1.68 ± 0.02. For the sequence AAAACGTTTG, the switch fluorescence ratio was found to be 1.025 ± 0.0023. In the case of AAAACTGAGC it was 1.08 ± 0.031; in that of AAAACTGCGA, 1.03 ± 0.067; in that of AAAACTTTAC, 1.2918 ± 0.00043. AAAAGAAAGC: the switch fluorescence ratio came to 0.956 ± 0.03. For AAAAGAACGA, the switch fluorescence ratio amounted to 1.05 ± 0.074. Regarding AAAAGAATGG, the switch fluorescence ratio was determined as 0.971 ± 0.043. With AAAAGACGG, the switch fluorescence ratio is 1 ± 0.062. In the case of AAAAGCACGA it was 1.09 ± 0.2; in that of AAAAGCCGGG, 0.979 ± 0.16; in that of AAAAGCGGTA, 1 ± 0.054. Consider AAAAGGGAGC, for which the switch fluorescence ratio is 1.14 ± 0.14.

On to AAAAGGGGGC, for which the switch fluorescence ratio was found to be 1.01 ± 0.05.

On to AAAAGGGGGG, for which the switch fluorescence ratio worked out at 1.02 ± 0.044.

On to AAAAGGGTTA, for which the switch fluorescence ratio amounted to 0.9976 ± 0.004. With AAAAGGTAAA, the switch fluorescence ratio is 1.02 ± 0.021.

As for AAAAGGTGCG, the switch fluorescence ratio was determined as 0.993 ± 0.013. Regarding AAAAGGTTAA, the switch fluorescence ratio is 0.968 ± 0.019.

For AAAAGTAGAA, the switch fluorescence ratio was determined as 0.992 ± 0.023. In the case of AAAAGTATAC it was 1.06 ± 0.072; in that of AAAAGTCCGC, 1.45 ± 0.062; in that of AAAAGTGGCA, 1.07 ± 0.065. In the case of AAAAGTGGGC, the switch fluorescence ratio worked out at 1.07 ± 0.081. In the case of AAAAGTGTTA it was 0.977 ± 0.027; in that of AAAAGTGTTG, 0.948 ± 0.03; in that of AAAAGTTGCG, 0.9679 ± 0.0076. On to AAAAGTTTGG, for which the switch fluorescence ratio worked out at 1 ± 0.015. Take AAAATAGAAC: the switch fluorescence ratio was 1.01 ± 0.041. For the sequence AAAATATTCG, the switch fluorescence ratio came out at 1.01 ± 0.011.

AAAATCGCTT: the switch fluorescence ratio was found to be 1.01 ± 0.065. As to AAAATCGGCG, the switch fluorescence ratio was found to be 1.05 ± 0.073. As for AAAATCGGGT, the switch fluorescence ratio turned out to be 1.03 ± 0.025. Regarding AAAATCTAAA, the switch fluorescence ratio amounted to 1.014 ± 0.0068. AAAATGAGTG: the switch fluorescence ratio was 0.985 ± 0.021. In the case of AAAATGATTT it was 1.02 ± 0.043; in that of AAAATGCAG, 0.9856 ± 0.0015.

For AAAATGCGCT, the switch fluorescence ratio was determined as 0.975 ± 0.013.

On to AAAATGCGTG, for which the switch fluorescence ratio amounted to 0.966 ± 0.059. As to AAAATGCTTT, the switch fluorescence ratio is 1.01 ± 0.0014. In the case of AAAATGGAAA it was 1.028 ± 0.0035; in that of AAAATGGATG, 0.983 ± 0.031; in that of AAAATGGCAG, 1.004 ± 0.0089.

Consider AAAATGGGTG, for which the switch fluorescence ratio amounted to 0.976 ± 0.015. In the case of AAAATGGGTT it was 1 ± 0.059; in that of AAAATTATAT, 1.02 ± 0.035.

Regarding AAAATTATTT, the switch fluorescence ratio worked out at 1.01 ± 0.021. AAAATTGAAA: the switch fluorescence ratio turned out to be 0.988 ± 0.073. As for AAAATTGCGT, the switch fluorescence ratio is 1.16 ± 0.2.

Consider AAAATTGGAA, for which the switch fluorescence ratio was 1 ± 0.03. For the sequence AAAATTGTCT, the switch fluorescence ratio worked out at 0.981 ± 0.023. Turning to AAAATTTGTG, the switch fluorescence ratio was 0.995 ± 0.017. For AAAATTTTTA, the switch fluorescence ratio is 1 ± 0.021. With AAACACAAGA, the switch fluorescence ratio came out at 1.13 ± 0.18. In the case of AAACAGGGAT, the switch fluorescence ratio amounted to 1 ± 0.032. AAACAGTTGG: the switch fluorescence ratio amounted to 0.9936 ± 0.0097. As for AAACATAAGC, the switch fluorescence ratio came to 0.991 ± 0.038. In the case of AAACATTTCA, the switch fluorescence ratio was 0.976 ± 0.063.

As for AAACCAGTG, the switch fluorescence ratio is 1.175 ± 0.0088.

Regarding AAACCGGGGG, the switch fluorescence ratio is 1.1 ± 0.085. As to AAACCTCTGG, the switch fluorescence ratio is 0.965 ± 0.02. As for AAACGAGGAG, the switch fluorescence ratio is 1 ± 0.013. AAACGAGGGT: the switch fluorescence ratio worked out at 1.02 ± 0.03.

Take AAACGATGTG: the switch fluorescence ratio is 0.985 ± 0.023. For AAACGCAAAG, the switch fluorescence ratio was determined as 1.27 ± 0.3. In the case of AAACGGGGCT, the switch fluorescence ratio amounted to 1.02 ± 0.012.

Take AAACTGTAAT: the switch fluorescence ratio worked out at 1.08 ± 0.017. Turning to AAACTTGTAC, the switch fluorescence ratio turned out to be 1.1 ± 0.036. Turning to AAACTTTGTT, the switch fluorescence ratio came out at 1.02 ± 0.039. For the sequence AAAGAAAGC, the switch fluorescence ratio was 1.02 ± 0.08. In the case of AAAGAAAGCG, the switch fluorescence ratio was 0.997 ± 0.042.

As for AAAGAAATTG, the switch fluorescence ratio is 1.01 ± 0.035. With AAAGAACGGG, the switch fluorescence ratio is 1.04 ± 0.023.

Consider AAAGAAGCAT, for which the switch fluorescence ratio is 1.001 ± 0.0059. Consider AAAGAAGGGA, for which the switch fluorescence ratio came out at 0.981 ± 0.015. In the case of AAAGAAGGGC, the switch fluorescence ratio is 0.938 ± 0.05.

For the sequence AAAGACAGGG, the switch fluorescence ratio stood at 0.976 ± 0.036. With AAAGACGGTT, the switch fluorescence ratio worked out at 0.997 ± 0.013. Consider AAAGAGAAGT, for which the switch fluorescence ratio was determined as 1.02 ± 0.019.

AAAGAGAGTA: the switch fluorescence ratio is 1.01 ± 0.038. For the sequence AAAGAGCGCC, the switch fluorescence ratio came to 0.947 ± 0.03. Consider AAAGAGGAGA, for which the switch fluorescence ratio is 1.02 ± 0.023.

AAAGAGGGG: the switch fluorescence ratio was found to be 0.98 ± 0.029. Regarding AAAGAGGGGG, the switch fluorescence ratio is 1.03 ± 0.049. With AAAGAGTCCT, the switch fluorescence ratio came out at 1.01 ± 0.029.

Turning to AAAGAGTTGA, the switch fluorescence ratio turned out to be 1 ± 0.022. For the sequence AAAGAGTTGC, the switch fluorescence ratio amounted to 0.9785 ± 0.0069. Take AAAGAGTTTT: the switch fluorescence ratio came out at 1.02 ± 0.071. AAAGATAATT: the switch fluorescence ratio was 0.982 ± 0.018. Take AAAGATATAA: the switch fluorescence ratio amounted to 1.03 ± 0.036. In the case of AAAGATGATG, the switch fluorescence ratio is 1.0025 ± 0.00068.

Regarding AAAGATGCGG, the switch fluorescence ratio came to 1.01 ± 0.066.

For AAAGATGGCT, the switch fluorescence ratio turned out to be 0.98 ± 0.025. AAAGATTAAA: the switch fluorescence ratio was found to be 0.9918 ± 0.0056. For AAAGATTCGA, the switch fluorescence ratio was found to be 0.996 ± 0.01. Turning to AAAGATTTGT, the switch fluorescence ratio came out at 0.978 ± 0.016. As to AAAGCAATGG, the switch fluorescence ratio turned out to be 2.51 ± 2.

Consider AAAGCAATTG, for which the switch fluorescence ratio is 1.077 ± 0.0065.

On to AAAGCAGGGA, for which the switch fluorescence ratio was found to be 1.04 ± 0.043.

For the sequence AAAGCATAAC, the switch fluorescence ratio was found to be 1.91 ± 0.14. In the case of AAAGCGGGGG, the switch fluorescence ratio turned out to be 1.04 ± 0.016. On to AAAGCGTGGA, for which the switch fluorescence ratio came out at 1 ± 0.011. In the case of AAAGCGTGTG, the switch fluorescence ratio was found to be 1.01 ± 0.043.

Take AAAGCTATTC: the switch fluorescence ratio came out at 1.12 ± 0.16. In the case of AAAGCTCACC it was 1.12 ± 0.026; in that of AAAGGAAGGT, 1.01 ± 0.024.
